# Results reported in US20240383964A1, “De Novo Designed alpha(5) beta(1) Integrin selective minibinders” (UNIVERSITY OF WASHINGTON, priority 2023, published 2024).
# B1: 00179_v4.1: highest affinity α5β1 minibinder, sequence SELIIHGRGDFPSSELERLRERFERLGIKVRVDHKVLTLIGISEEEAERLARELRKRGIWVEIRK (protein)
# chain: SELIIHGRGDFPSSELERLRERFERLGIKVRVDHKVLTLIGISEEEAERLARELRKRGIWVEIRK
# Legend:
# [1] = target: T1, active form of integrin α5β1 (Homo sapiens, UniProt P05556+P08648); assay: Colocalization of minibinder conjugated to GFP-tagged protein sheets with integrin staining; type: cell-based; conditions: α5 and active β1 specific antibodies
# T1 construct: endogenous in cells
# Experimental: (§1) FIG. 2. (A) BLI binding affinity traces for minibinder or ^8RGD^10/GGG mutant against α5β1 in indicated buffers. Minibinder affinity to integrin α5β1 is dependent on metal ion presence and RGD motif. All affinity data was collected by Octet™ R8 and binding affinity was estimated by the Octet™ ForteBio software package. (B) Minibinder has no detectable affinity in presence of 500 nM or 1000 nM integrin αvβ1, αvβ3, αvβ6, αvβ8 and α8β1. (C) Cell surface titration of minibinder 4584_V5.3 and 00179_v4.1 against K562 cells wild type. […] Integrin α5 subunit and β1 subunit were stained with integrin α5 and active integrin β1 subunit specific antibody, respectively. (E) Quantification of (D). Quantification was counted as a percentage of mb-sheets that colocalized with staining of a5 and b1, a5 only, b1 only, or none; 30-35 sheets were counted in each biological repeat. […] Vascular stability was analyzed at 12-h timepoints. […] (G) Quantification of (F). The number of nodes, meshes, and tubes from images in (F) were quantified using an angiogenesis analyzer plug-in in ImageJ. Statistical significance of each were analyzed using One-way Anova Bonferroni's multiple comparison test. […] The wound area of T0 and T12 time points were quantified using imageJ and level of cell migration were calculated using this equation (AreaT0-T12)/AreaT0, all samples were normalized to PBS as fold change. […]
# HUVECs = assay: Tube formation assay; type: cell-based, human
# Experimental: as §1
# T1 sequence (P08648 42-894 limits assumed): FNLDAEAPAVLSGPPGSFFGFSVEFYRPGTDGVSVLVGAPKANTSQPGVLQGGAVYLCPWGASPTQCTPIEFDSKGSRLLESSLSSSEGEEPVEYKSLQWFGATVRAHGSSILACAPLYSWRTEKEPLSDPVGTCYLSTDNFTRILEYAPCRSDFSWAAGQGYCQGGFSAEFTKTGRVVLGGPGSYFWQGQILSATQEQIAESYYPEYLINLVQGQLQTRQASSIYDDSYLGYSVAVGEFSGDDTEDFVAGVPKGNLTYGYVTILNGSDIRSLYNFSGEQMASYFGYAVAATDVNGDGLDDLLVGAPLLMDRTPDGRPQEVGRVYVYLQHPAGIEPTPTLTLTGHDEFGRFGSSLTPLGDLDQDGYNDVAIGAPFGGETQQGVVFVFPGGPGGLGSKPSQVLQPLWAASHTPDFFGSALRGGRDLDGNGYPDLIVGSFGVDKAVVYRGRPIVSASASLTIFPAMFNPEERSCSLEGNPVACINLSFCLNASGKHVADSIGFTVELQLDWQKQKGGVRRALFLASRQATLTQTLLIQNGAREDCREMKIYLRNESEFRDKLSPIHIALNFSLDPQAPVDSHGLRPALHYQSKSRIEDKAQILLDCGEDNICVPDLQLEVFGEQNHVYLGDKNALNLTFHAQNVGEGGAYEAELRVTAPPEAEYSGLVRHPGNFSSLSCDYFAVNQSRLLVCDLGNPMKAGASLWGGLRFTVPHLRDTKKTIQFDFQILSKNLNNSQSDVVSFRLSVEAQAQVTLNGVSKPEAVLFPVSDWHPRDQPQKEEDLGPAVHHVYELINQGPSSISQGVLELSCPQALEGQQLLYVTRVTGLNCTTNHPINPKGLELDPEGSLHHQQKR
# T1 sequence (P08648 895-1049 partner limits assumed): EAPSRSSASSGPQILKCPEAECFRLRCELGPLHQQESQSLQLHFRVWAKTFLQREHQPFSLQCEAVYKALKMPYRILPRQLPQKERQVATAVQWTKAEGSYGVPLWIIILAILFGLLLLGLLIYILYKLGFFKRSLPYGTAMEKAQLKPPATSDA
# T1 sequence (P05556 21-798): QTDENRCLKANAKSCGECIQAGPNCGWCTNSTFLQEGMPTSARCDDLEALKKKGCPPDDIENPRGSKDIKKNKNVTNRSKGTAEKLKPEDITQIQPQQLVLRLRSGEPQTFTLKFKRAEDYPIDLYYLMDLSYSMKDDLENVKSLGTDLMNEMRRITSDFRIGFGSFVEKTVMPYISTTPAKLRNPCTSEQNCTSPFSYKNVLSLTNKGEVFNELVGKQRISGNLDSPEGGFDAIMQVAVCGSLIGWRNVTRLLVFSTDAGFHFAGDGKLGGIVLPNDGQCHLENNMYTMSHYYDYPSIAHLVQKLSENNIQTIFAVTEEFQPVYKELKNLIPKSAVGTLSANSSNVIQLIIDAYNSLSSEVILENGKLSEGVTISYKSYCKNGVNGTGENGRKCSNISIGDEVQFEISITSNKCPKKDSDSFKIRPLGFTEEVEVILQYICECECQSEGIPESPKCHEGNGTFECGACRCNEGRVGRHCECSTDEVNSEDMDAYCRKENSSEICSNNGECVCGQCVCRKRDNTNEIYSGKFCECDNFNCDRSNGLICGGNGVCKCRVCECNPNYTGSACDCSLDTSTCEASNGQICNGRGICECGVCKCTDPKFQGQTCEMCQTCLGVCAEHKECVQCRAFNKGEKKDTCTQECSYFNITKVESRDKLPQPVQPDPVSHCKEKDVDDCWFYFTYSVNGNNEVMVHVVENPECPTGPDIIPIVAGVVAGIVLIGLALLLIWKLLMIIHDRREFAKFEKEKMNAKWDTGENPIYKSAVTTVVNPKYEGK
molecule,measurement,setting,value
B1,localization of minibinder sheet with integrin α5 and active β1 staining,[1],colocalized with active form of integrin α5β1
same,vascular stability,"HUVECs; HUVEC cells, 0, 0.1, 1, 10 and 100 nM, 12-h timepoint",decrease in vascular stability
same,tube formation,"HUVECs; HUVECs, 10 nM and 100 nM, 12 hours, compared to PBS control",significantly attenuated
